Data published in patent US20050048073A1, “Methods of determining west nile virus epitopes and method of using the same” (priority 2001, published 2005).

Tests used:
HLA B*07 = HLA B*07 (Homo sapiens, UniProt P01889); experiment: T2B7 binding assay (stabilization of HLA B*07 on TAP-deficient T2 cells, FACS); settings: for Avg. Fold Inc. @ 200: fold increase over background; for Avg. Fold Inc. @ 200 / Avg. MFI 200: peptide at 200 ug/ml; for Avg. MFI 200: mean fluorescence index; for Binding number (binding score): numerical sum of all the positive assays; for Binding strength: rated strong, moderate, weak or none by number of significantly positive wells
Method: Triplicate wells of peptide at 10, 20, 200 ug/ml were evaluated in each of the T2 B7 binding assays; each assay was repeated 4 times. […] The “binding score” column provides the numerical sum of all the positive assays in the binding summary column.
The T2B7 binding assay method is well described in the literature and operational in the laboratory. This assay relies on the ability of exogenously added peptides to stabilize the class I MHC/beta 2 microglobulin structure on the surface of transporters associated with antigen processing (TAP)-deficient cell lines. Briefly, HLA B*07 T2 cell lines were prepared by incubating overnight (16 hours) at 26° C. Just prior to the binding assay these cells were washed twice in serum-free media. Solutions of the test peptides at three concentrations (final concentration of 10, 20, and 200 ug/ml in RPMI 1640 (Sigma, St. Louis, Mo.)) were plated in triplicate wells of a 96 well, round-bottom assay plate (Beckton Dickinson, Lincoln Park, N.J.). Sixteen wells containing cells without peptide were included in each plate, serving as the no-peptide control (background control) for the assay.
100,000 cells were added to each well, and the plates were then incubated for four hours at 37° C., 5% CO2 The plates were then spun at 110×g for 10 minutes at 4° C., supernatant is discarded and the remaining cells are re-suspended. One hundred uL of diluted primary antibody-containing hybridoma supernatant (1:10 dilution of ME1 supernatant produced by HB-119 cell line from ATCC) in staining buffer (PBS, 5% FBS, 0.1% sodium azide) was added to all of the wells except 8 wells per assay plate (each containing 200 ug/ml of one study peptide, these wells served as controls for non-specific binding of secondary antibody). Primary antibody was incubated with the peptide-pulsed cells for 30 minutes at 4° C. After washing three times, the cells were re-suspended, and 100 uL of a 1:250 dilution of FITC-labeled secondary antibody (FITC labeled Goat F(ab′)2 Anti-mouse IgG (H+L) from Caltag) in staining buffer were added to all wells. The plates were incubated for 30 minutes at 4° C., and subsequently washed three times. The contents of each well were then resuspended in 200 uL of fixing buffer (PBS, 1% paraformaldehyde), and aliquoted into FACS tubes.
The 16 negative control wells in each plate contained no peptide but did contain cells, primary antibody and secondary antibody. An additional set of triplicate wells was plated with peptide at the highest concentration (200 ug/ml), but no primary antibody was added to the wells to control for non-specific secondary antibody binding. One positive control peptide (the known B*07 binder) was tested at three concentrations (in triplicate wells) in each assay plate.
Following fixing, the presence of fluorescent secondary antibody on the surface of T2 cells (gated to the appropriate cell size) was measured at 488 nm on a FACScan flow cytometer (Becton-Dickinson, New Jersey). The mean linear fluorescence […] of 10,000 events was measured and compared to the background fluorescence of cells plated in (no peptide) control wells. A positive response was defined as a 10% increase over baseline MLF and p<0.05, in more than one concentration in each of four assays. The assays are repeated 4 times for each concentration of peptide. Each peptide was tested in a total of 36 wells (triplicate wells, three concentrations, four assays).

HLA B*07 (human) [1] = experiment: T2B7 HLA stabilisation assay, flow cytometry, peptide at 200 ug/ml
HLA B*07 (human) [2] = experiment: T2B7 HLA stabilisation assay, flow cytometry, 10/20/200 ug/ml, four assays; settings: for Binding results (total of four assays): scale: of 3 concentrations positive

Row | Avg. Fold Inc. @ 200 (fold over background) (HLA B*07 (human) [1]) | Avg. MFI 200 (HLA B*07 (human) [1]) [MFI] | Binding number (binding score) (HLA B*07 (human) [2]) | Molecule | affinity to B*07 in vitro compared with previously published B*07 epitope GPGHKARVLA (from HIV-1) (HLA B*07) | Avg. Fold Inc. @ 200 (HLA B*07) | Avg. MFI 200 (HLA B*07) | Binding number (binding score) (HLA B*07) | Binding strength (HLA B*07) | other results
1 |  |  |  | RPAADGRTVM [WNB7 023] | much greater affinity | 1.5 | 979.1 | 12 | strong (stabilized HLA B7 on the surface of T2B7 cells at more than two concentrations in all four replicate assays, receiving a total binding score of 10, 11, 11, 12, and 12) | 
2 |  |  |  | RPQRHDEKTL [WNB7 019] | much greater affinity | 2.8 | 1644.6 | 11 | strong (stabilized HLA B7 on the surface of T2B7 cells at more than two concentrations in all four replicate assays, receiving a total binding score of 10, 11, 11, 12, and 12) | 
3 |  |  |  | RPRWIDARVY [WNB7 017] | much greater affinity | 1.9 | 1714.0 | 11 | strong (stabilized HLA B7 on the surface of T2B7 cells at more than two concentrations in all four replicate assays, receiving a total binding score of 10, 11, 11, 12, and 12) | 
4 |  |  |  | SPHRVPNYNL [WNB7 020] | much greater affinity | 2.5 | 1607.9 | 12 | strong (stabilized HLA B7 on the surface of T2B7 cells at more than two concentrations in all four replicate assays, receiving a total binding score of 10, 11, 11, 12, and 12) | 
5 |  |  |  | TPAAPSYTLK [WNB7 009] |  | 1.5 | 954.5 |  |  | Binding number (binding score) (HLA B*07; listed as WNVB7 0009): 8; Binding strength (HLA B*07; listed as WNVB7 0009): moderate (stabilized HLA B*07 to a moderate degree (receiving binding scores of 6 to 8))
6 |  |  |  | TPGLRCLNLD [WNB7 024] |  | 1.0 | 849.6 | 2 | non-binder (did not bind (binding score of 2)) | 
7 |  |  |  | VPCRGQDELV [WNB7 010] |  | 1.0 | 658.6 | 4 | weak (weak binders (binding score of 4)) | 
8 |  |  |  | VPGTKIAGML [WNB7 018] |  | 1.7 | 1088.4 |  |  | Binding number (binding score) (HLA B*07; listed as WNVB7 0018): 6; Binding strength (HLA B*07; listed as WNVB7 0018): moderate (stabilized HLA B*07 to a moderate degree (receiving binding scores of 6 to 8))
9 | 1.1 | 945 | 2 | NPMILAAGLI [WNVB7 0007] |  |  |  |  |  | Binding results (total of four assays) (HLA B*07 (human) [2]; in 2 assays): 1
10 | 1 | 842 | 0 | AVKDELNTLL [WNVB7 0004] |  |  |  |  |  | Binding results (total of four assays) (HLA B*07 (human) [2]; in 4 assays): 0
11 | 1.2 | 708 | 4 | AAKKKGASLL [WNVB7 0006] |  |  |  |  |  | Binding results (total of four assays) (HLA B*07 (human) [2]; in 4 assays): 1
12 | 1 | 627 | 1 | PFPESNSPIS [WNVB7 3411] |  |  |  |  |  | Binding results (total of four assays) (of 3 concentrations positive, in 1 assay) (HLA B*07 (human) [2]): 1
13 | 0.9 | 779 | 0 | PRTNTILEDN [WNVB7 3415] |  |  |  |  |  | Binding results (total of four assays) (HLA B*07 (human) [2]; in 4 assays): 0
